The stoichiometry N is a count of units in the complex or per binding partner.

Data on one protein can be found in article PMC4661877, “Enhancement of Chaperone Activity of Plant-Specific Thioredoxin through γ-Ray Mediated Conformational Change” (International Journal of Molecular Sciences, 2015).

This series concerns the molecule itself. Put plainly: SEC; Superdex 200 10/300 GL, FPLC, 4 °C, 50 mM HEPES pH 8.0, 100 mM NaCl, 0.5 mL/min; size against standard proteins. Background: Size exclusion chromatography separates by hydrodynamic size, large species first.

B1: Arabidopsis thaliana tetratricopeptide domain-containing thioredoxin (AtTDX), non-irradiated (enzyme, UniProt Q8VWG7 1-380, looked up)
chain: MVDAIQVAELRRFVEQLKLNPSILHDPSLVFFKEYLRSLGAQVPKIEKTERDYEDKAETKPSFSPKHDDDDDDIMESDVELDNSDVVEPDNEPPQPMGDPTAEVTDENRDDAQSEKSKAMEAISDGRFDEAIEHLTKAVMLNPTSAILYATRASVFLKVKKPNAAIRDANVALQFNSDSAKGYKSRGMAKAMLGQWEEAAADLHVASKLDYDEEIGTMLKKVEPNAKRIEEHRRKYQRLRKEKELQRAERERRKQQEAQEREAQAALNDGEVISIHSTSELEAKTKAAKKASRLLILYFTATWCGPCRYMSPLYSNLATQHSRVVFLKVDIDKANDVAASWNISSVPTFCFIRDGKEVDKVVGADKGSLEQKIAQHSSSK
notes: AtTDX, Arabidopsis thaliana tetratricopeptide domain-containing thioredoxin; 380 amino acids, 42 kDa; three TPR domains at the amino terminus and a thioredoxin domain at the carboxyl terminus; Mixture of LMW (mainly tetrameric) and HMW forms; also called non-irradiated AtTDX; 0 kGy
Turning to B1, the “stoichiometry N” value was found to be 4.
